# Test: soluble on expression in E. coli; label from the status in PepcDB or PDB records
row,Sequence,soluble on expression in E. coli
1,MGSDKIHHHHHHMKLTAQIHIEKMAYELRDHAHAVIKNVLLMSNISTLSLQLAMRELAQHSRVALHFHPDQIDNRGLTVVDGLLRDGVYKSQFETHVSNGHLSPELGGSRDHWENQLFGHSYSGIKHRPKYGALDFGLCPLGPAPRFGSCYLVTHPQILSRCTFSYMDSHRLPKEKGTIKCFDAILAALLSESFERQYALGVSGLKPSKLIEHFSQHLTDDISRRFDLVPSGNLDHYIEAQIHGDVSLDQDIAILVADPSYMGTAIGDSLIALCHEYGIELHWHQGRQINVAQIPDDFRGAAMPILAQSLAENELINAEIIGRAAYQLQKQPASWSERGAHSKKRQDLKLLWHVLVKYGESTGQ,not soluble
2,MIKGIGLDMIDLERVKQVVEKNPRFIERVLTEKEIKQFEKYEGNRKIEFLAGRFAAKEAYAKANGTGFGKHLSFTDVEILQVEDGRPHVTLPVKSGENVFVSITHTARSAAAQVIIEI,not soluble
3,DDAAIKRKLQSFNISNIVIKSSPISGIKTAVTDQGILYVSEDGKYLFEGKLYELTNNGPVDVAGKILVDKLNSYKDEMIVYPAKNEKHVVTVFMDITCHYCHLLHQQLKEYNDLGITVRYLAFPRAGMNNQTAKQMEAIWTAKDPVFALNEAEKGNLPKEVKTPNIVKKHYELGIQFGVRGTPSIVTSTGELIGGYLKPADLLRALEETAQ,soluble
4,DKSRIAHMIDEWDGKEIIYPDDLVFTTMGEDTVKWFLKDSRYTIVTYADSIGCMGCKLKLPVWKDFISYLDSVSDHTVKVIFILHPRDKKEMVHLLEYNDFSYPVCLDIKGSFDKINKIPSNLAFQTFLLDNRNKVIAIGNPIHNPNVRTLYLNLILSDSICKS,not soluble
5,MTNAKPENALAAIGIARKELDADRYILISSDLVYTPSNDPKAEDSRTEPITDEGRIFLTAESLMNQERDAIFRTGFIIGLCSVNLYTNVLNMVRSGMRLSLSKSTIRNFIRNADLSSFIMRSIERNISGVYNVASDASTAYDFAKRLCDMAGLKCTLEDSGEDLGNYTMDTSRSLKTFGMRPMSVFEGYTISGSFDLR,not soluble
6,MEEQNANQMLTDILSFMKSGKRAAALEHHHHHH,soluble
7,MGSDKIHHHHHHFDLEPSSSVPTDKVYKTADDFNVAVIGCYSKLQGQVSYFTECCEYRSDNLSLSAPTAGTQDRYDIDQFADKASNGILESAWANFNNGVYRCNLVLDKIDAADFDATLKKQYKGEALFVRALTYFNMYRLWGGIPMTDKVVTVAEALKIGRSSEQQVFDFLTGDLNQVINENMLPSSYTGTDTGRATSGAAMALLGKIYLTFHKWTEARNVLSQLIGRYSLMPTPDKVFDVDNKMNDEIIFAVRFNKDVEGEGHGYWFSIINLTDDTNQTKALKECYKDGDKRKDLITYVKVEDKVCVMNKFKDLKSATYNTVGNDQIILRYADVLLMYAEALNEISYSNSQTSDAMVALNAVHTRAGLSPVQITELADQDSFRKAIMLERQQEFPYEGHRWFDLVRMGGAKEAMKAEGHTIQDFQFLYPIPKTELERINNTELLWQNPGY,not soluble
8,MGSDKIHHHHHHMDFRQFEYVKTIAEEKSISRAAERLYISQPSLSQYIIRLENSLGVKLFDRTSATITLTFAGEKYIETARNIINLNNQLTKELNDIANLSKGRVIIGVPSQAGRYILPLVIPKFYKEYPNIEIIVEENIVSELEKMLLEGKIDIAILTLPVQHEKITYESIMNERIFLIAPKKHPICSVDGRISFNFIRNEKFILLKKGQRIRLIVDDIFSRIGAKPNIILEITNLDAAYRMASSGMGFTIVPENVLYLLNTNGKENDFIIDSLEHTLVVAYRKGEYLTRASREFIANLKGVMKMDYNNKNHNSVSYKKIYID,not soluble
9,MKTLLPTSTAGSLPKPSWLAQPEKLWSPWKLQDEELIEGKRDALRLSLNDQQQAGIDIVSDGEQTRQHFVTTFIEHLSGVDFEKRETVRIRNRYDASVPTVVGAVSREKPVFVEDAKFLRQQTRQPIKWALPGPMTMIDTLYDSHYKSREKLAWEFAKILNQEARELEAAGVDIIQFDEPAFNVFFDEVNDWGVATLEKAIEGLKCETAVHICYGYGIKANTDWKKTLGSEWRQYEEAFPKLQKSNIDLISLECHNSRVPMDLIELIRGKKVMVGAIDVATSAIETPEEVADTLRKALRFVDADKLYPCTNCGMAPLSRQVARSKLNALGAGAEIIRRELSVAAALEHHHHHH,not soluble
10,MAAVTELPKMNQELAGAVREGLELKKVETTEKNVLPTKEDVAEEKQHVERIHEIEHFDSTKLHSTPVKEKIVLPSADDIKQEKQHLELTDKINNFPSENLKKTETIEKNVLPSPTDVAREKTLQMAASFDKSALHHVETIVSTDVRVTEAQ,soluble
11,MFNCLGTSNRDFVEGASGATWIDLVLEGGSCVTVMAPEKPTLDFKVMKMEATELATVRKYCYEATLDTLSTVARCPTTGEAHNTKRSDPTFVCKRDVVDRGWGNGCGLFGKGSIDTCAKFTCKNKATGKTILRENIKYEVAIFVHGSTDSTSHGNYFEQIGKNQAARFTISPQAPSFTANMGEYGTVTIDCEARSGINTEDYYVFTVKEKSWLVNRDWFHDLNLPWTSPATTDWRNRETLVEFEEPHATKQTVVALGSQEGALHTALAGAIPATVSSSTLTLQSGHLKCRAKLDKVKIKGTTYGMCDSAFTFSKNPTDTGHGTVIVELQYTGSNGPCRVPISVTANLMDLTPVGRLVTVNPFISTGGANNKVMIEVEPPFGDSYIVVGRGTTQINYHWHKEGSSIGKA,not soluble
12,MATAVKLSGISKTFGSLKANDNVSLSIEAGSIHALVGENGAGKSTLSNIIYGLLHPDSGTIEIDGKAVKFSSVRQAIEAGIGMVHQHFMLVPTLSVTENIILGKEESRLALPTRRIGKEIRQLSQQHGLEVDPDALVSTLSVGEQQRVEILKLLYRRAKLLILDEPTAVLSPPETARLFATLRSLAAEGRTVLLITHKLDEVLTVSDSVSVMRKGSLVGTVPTTSTSKEDLARMMVGRDVLLRTANAPQTPGKTVLSIDKLTYRSPLGIDKLTGLTLHVRAGEIYGIAGVEGNGQSELLSLLWGTFDRSGKTGGSITIDAQETLGKNPSEIAALGVSMIPEDRHKSAIIAEYGIEENLILGRHREKAFHRGIGFDRDAVHKNATAMIEQYDIRCAAGTNPPIASLSGGNQQKIVVAREMERPQLKLLVLAQPTRGVDIGAIEQIHKRIIDARKSGLAILLISSELEEIVALSTRIGCLYKGAIRHEFSETEVWRGRDHESGFEKEIGMHITLEHHHHHH,soluble
13,MAPSMIPFTIKLKTCLKMCIQRLRYAQEKQQAIAKQSRRQVAQLLLTNKEQKAHYRVETLIHDDIHIELLEILELYCELLLARVQVINDISTEEQLVKEHMDDGINEAIRSLIYAILFVDEVKELSQLKDLMAWKINVEFVNGVIADHIDVPEKIIKKCSPSVPKEELVDLYLKEIAKTYDVPYSKLENSLSS,soluble
14,MKASIYDFTLKELSQLLKPSFRAKQLYLWLYAKYKTSFKDMQNNFSKDFIAYLEREFALRTIEITHVRESVDGSKKYLFKSLRDNHTFEAVLLKMKDKKIDAETNAILEREKYTVCVSCQIGCQVGCSFCFTQKGGFVRNLKASEIIQQALLIKEDNNLPLEKALNIVFMGMGEPLNNLDEVCKAIEIFNTGMQISPKRITISTSGVADKIPILAGKNLGVQLAISLHAVDDKTRSSLMPLNKKYNIECVLNEVRKWPLEQRKRVMFEYLLIKDLNDSLDCAKKLLKLLNGIKSKVNLILFNPHEGSKFERPSLENARMFADFLNSKGLLCTIRESKALDIEAACGQLREKKLSQQILEHHHHHH,soluble
15,MLIKQTDYFRIYRVINSLLISQNADPASASMYFSTFGAFILQQHYKVKAVPKGGLAAYNLGGTVLLFADHREDGYVTGAGENFHCWVEADGWAIDFMAPAFSEGTDALAVPAKMFQRPLSAMAASINDLGQSGDFFYRSEPEATARRFADWHKQAMIGDMASVAANWFRKSPKQMAASLSVTDRDGKARTVPLTGEMLTGAW,soluble
16,MGSDKIHHHHHHMRKLPPLRALQIFEAAARHAHFSRAATELCITQSAVSHQVRLLEAHFGERLFIREGRQLCLTSKGNVLYHELERIFNELNDLSMQITGDCNDQLRLAVYSSFAIKWLIPRLSDFHRLHPQIKIRLDMITDDPQMSDSVADMFITGQSGQPGYVHRMLHQERLIPVICPGLLNTDHSALSVLRQHALLTVDEGPIGFDWERWLKVNSISIAATQQQHVFSHVLLAIEAAIAGQGIALASDFMVERDISKGALVALDLPAMLTGFEFNFSCKQRRLKEPAIAAFVQWLTKK,not soluble

# From the DeepSol protein solubility set
